How the values were obtained:
[1] = biological target: the molecule itself; experiment: SEC-MALS; mHsp60 (WT or variant) with mHsp10, pre-incubated with 1 mM ATP, 1 mM BeCl2 and 10 mM NaF for 5 min; Superose-6, ~25 C
[2] = biological target: the molecule itself; experiment: SEC-MALS; mHsp60 with mHsp10, pre-incubated with 1 mM ATP for 5 min; Superose-6, ~25 C

B1: wild-type human mitochondrial Hsp60 (mHsp60) (natural protein)
chain: GSAKDVKFGADARALMLQGVDLLADAVAVTMGPKGRTVIIEQSWGSPKVTKDGVTVAKSIDLKDKYKNIGAKLVQDVANNTNEEAGDGTTTATVLARSIAKEGFEKISKGANPVEIRRGVMLAVDAVIAELKKQSKPVTTPEEIAQVATISANGDKEIGNIISDAMKKVGRKGVITVKDGKTLNDELEIIEGMKFDRGYISPYFINTSKGQKCEFQDAYVLLSEKKISSIQSIVPALEIANAHRKPLVIIAEDVDGEALSTLVLNRLKVGLQVVAVKAPGFGDNRKNQLKDMAIATGGAVFGEEGLTLNLEDVQPHDLGKVGEVIVTKDDAMLLKGKGDKAQIEKRIQEIIEQLDVTTSEYEKEKLNERLAKLSDGVAVLKVGGTSDVEVNEKKDRVTDALNATRAAVEEGIVLGGGCALLRCIPALDSLTPANEDQKIGIEIIKRTLKIPAMTIAKNAGVEGSLIVEKIMQSSSEVGYDAMAGDFVNMVEKGIIDPTKVVRTALLDAAGVASLLTTAEVVVTEIPKEEKDPGMGAMGGMGGGMGGGMF
notes: residues left at the N-terminus after TEV cleavage and removal of the HisTag; human mitochondrial Hsp60 (mt-cpn60); Oligomeric state depends on nucleotide and concentration: monomers, heptameric single rings, tetradecameric double rings; also called WT mHsp60; mt-cpn60; source: E. coli Rosetta, purified (nickel-agarose, TEV cleavage, anion exchange, oligomerised with ATP, Superdex 200); not …
stoichiometry N [1]: 14 | stoichiometry N [2]: 7
